Measured values reported in the supplement of paper PMC9112550, “Optimization of the antimicrobial peptide Bac7 by deep mutational scanning” (BMC Biology, 2022).

System: Escherichia coli TOP10
Test: shrunken log2 fold change of peptide-encoding DNA abundance (4.5 h post-induction vs induction); higher = less antimicrobial activity (less host growth inhibition)
Conditions: time post-induction: 4.5 h; library: site-saturation at positions 5, 18, 19, 20
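Further: peptides expressed intracellularly from a pBAD plasmid library in pooled LB shake-flask culture, induced with 0.3% L-arabinose, DNA abundance read by NGS, three biological replicates, DESeq2 with apeglm shrinkage.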

Sequence	shrunken log2 fold change
RRIRMRPPRLPRPRPRPSSTPRP	0.858
RRIRYRPPRLPRPRPRPRNCPRP	-0.234
RRIRLRPPRLPRPRPRPAQRPRP	0.172
RRIRNRPPRLPRPRPRPPGQPRP	0.0465
RRIRYRPPRLPRPRPRPLGEPRP	-0.172
RRIRSRPPRLPRPRPRPFITPRP	-0.798
RRIRGRPPRLPRPRPRPPCGPRP	0.554
RRIRQRPPRLPRPRPRPVFYPRP	-0.147
RRIRMRPPRLPRPRPRPVYFPRP	-0.0299
RRIRQRPPRLPRPRPRPSTKPRP	0.0644
RRIRGRPPRLPRPRPRPGHCPRP	0.4
RRIRWRPPRLPRPRPRPKFYPRP	-0.24
RRIRSRPPRLPRPRPRPYVHPRP	-0.175
RRIRRRPPRLPRPRPRPEQMPRP	0.19
RRIRERPPRLPRPRPRPYQEPRP	-0.255
RRIRYRPPRLPRPRPRPSTDPRP	-0.011
RRIRKRPPRLPRPRPRPNHAPRP	-0.022
RRIRVRPPRLPRPRPRPEGAPRP	0.451
RRIRWRPPRLPRPRPRPEHIPRP	-0.14
RRIRARPPRLPRPRPRPWQDPRP	0.0326
RRIRNRPPRLPRPRPRPELYPRP	0.23
RRIRVRPPRLPRPRPRPKFKPRP	-0.2
RRIRFRPPRLPRPRPRPQNKPRP	-0.592
RRIRCRPPRLPRPRPRPQGPPRP	0.353
RRIRQRPPRLPRPRPRPVWHPRP	0.0663

Sequence	shrunken log2 fold change
RRIRERPPRLPRPRPRPDVYPRP	-0.301
RRIRCRPPRLPRPRPRPLHKPRP	-0.0345
RRIRFRPPRLPRPRPRPENYPRP	0.0219
RRIRGRPPRLPRPRPRPVFMPRP	0.0348
RRIRWRPPRLPRPRPRPGDEPRP	0.0372
RRIRYRPPRLPRPRPRPWCKPRP	-0.00141
RRIRVRPPRLPRPRPRPIPWPRP	-0.232
RRIRHRPPRLPRPRPRPHLQPRP	-0.129
RRIRARPPRLPRPRPRPMYFPRP	-0.154
RRIRTRPPRLPRPRPRPMAKPRP	0.0153
RRIRHRPPRLPRPRPRPEHFPRP	-0.00153
RRIRLRPPRLPRPRPRPYCWPRP	-0.37
RRIRMRPPRLPRPRPRPWSMPRP	-0.156
RRIRERPPRLPRPRPRPPFIPRP	-0.299
RRIRQRPPRLPRPRPRPCPMPRP	-0.203
RRIRARPPRLPRPRPRPMKIPRP	0.275
RRIRRRPPRLPRPRPRPRHNPRP	-0.14
RRIRHRPPRLPRPRPRPYLTPRP	-0.556
RRIRYRPPRLPRPRPRPNCLPRP	-0.942
RRIRVRPPRLPRPRPRPDMEPRP	0.0238
RRIRYRPPRLPRPRPRPQDHPRP	0.0457
RRIRPRPPRLPRPRPRPVSIPRP	-0.271
RRIRWRPPRLPRPRPRPLSPPRP	-0.097
RRIRHRPPRLPRPRPRPNFQPRP	-0.161
RRIRDRPPRLPRPRPRPLSIPRP	-0.0668

Sequence	shrunken log2 fold change
RRIRNRPPRLPRPRPRPKDDPRP	0.0456
RRIRMRPPRLPRPRPRPYIMPRP	-0.12
RRIRMRPPRLPRPRPRPPNHPRP	0.206
RRIRRRPPRLPRPRPRPLNGPRP	0.112
RRIRMRPPRLPRPRPRPMFQPRP	-0.228
RRIRERPPRLPRPRPRPHYHPRP	-0.356
RRIRVRPPRLPRPRPRPGLFPRP	0.0268
RRIRMRPPRLPRPRPRPINEPRP	-0.0839
RRIRPRPPRLPRPRPRPWHHPRP	-0.209
RRIRFRPPRLPRPRPRPITHPRP	-0.49
RRIRKRPPRLPRPRPRPCAIPRP	0.101
RRIRVRPPRLPRPRPRPGTVPRP	0.421
RRIRARPPRLPRPRPRPFNRPRP	-0.277
RRIRGRPPRLPRPRPRPVVHPRP	0.254
RRIRNRPPRLPRPRPRPPACPRP	0.301
RRIRKRPPRLPRPRPRPCLMPRP	-0.0503
RRIRNRPPRLPRPRPRPGLVPRP	0.171
RRIRDRPPRLPRPRPRPMMHPRP	0.937
RRIRARPPRLPRPRPRPVALPRP	0.411
RRIRPRPPRLPRPRPRPPWPPRP	0.688
RRIRMRPPRLPRPRPRPAPCPRP	0.835
RRIRDRPPRLPRPRPRPHLRPRP	-0.00431
RRIRTRPPRLPRPRPRPFQAPRP	-0.0372
RRIRQRPPRLPRPRPRPDDAPRP	-0.0705
RRIRQRPPRLPRPRPRPPKSPRP	0.18

Sequence	shrunken log2 fold change
RRIRFRPPRLPRPRPRPKRRPRP	0.0555
RRIRHRPPRLPRPRPRPFHAPRP	-0.0061
RRIRNRPPRLPRPRPRPEIHPRP	0.116
RRIRWRPPRLPRPRPRPALQPRP	0.367
RRIRWRPPRLPRPRPRPEEFPRP	0.023
RRIRVRPPRLPRPRPRPCGLPRP	-0.173
RRIRHRPPRLPRPRPRPIGTPRP	-0.0693
RRIRCRPPRLPRPRPRPDFGPRP	-0.275
RRIRVRPPRLPRPRPRPPNEPRP	0.345
RRIRERPPRLPRPRPRPPYIPRP	-0.252
RRIRYRPPRLPRPRPRPFHPPRP	-0.146
RRIRPRPPRLPRPRPRPIDDPRP	0.00554
RRIRFRPPRLPRPRPRPGNRPRP	1.63
RRIRHRPPRLPRPRPRPAKAPRP	0.0344
RRIRYRPPRLPRPRPRPKRKPRP	-0.128
RRIRDRPPRLPRPRPRPTWMPRP	0.507
RRIRIRPPRLPRPRPRPRPFPRP	-0.253
RRIRLRPPRLPRPRPRPMKKPRP	0.0162
RRIRKRPPRLPRPRPRPQNNPRP	-0.417
RRIRGRPPRLPRPRPRPYMRPRP	0.0456
RRIRARPPRLPRPRPRPISRPRP	0.354
RRIRVRPPRLPRPRPRPCPLPRP	-0.418
RRIRLRPPRLPRPRPRPEDQPRP	0.22
RRIRWRPPRLPRPRPRPLIVPRP	0.0513
RRIRIRPPRLPRPRPRPYRAPRP	-0.77

Sequence	shrunken log2 fold change
RRIRARPPRLPRPRPRPFRGPRP	-0.0013
RRIRRRPPRLPRPRPRPWWIPRP	0.249
RRIRVRPPRLPRPRPRPCKAPRP	0.033
RRIRLRPPRLPRPRPRPVGGPRP	0.516
RRIRQRPPRLPRPRPRPCYPPRP	-1.5
RRIRQRPPRLPRPRPRPQRHPRP	0.0218
RRIRLRPPRLPRPRPRPWSKPRP	-0.547
RRIRIRPPRLPRPRPRPPYYPRP	-0.827
RRIRLRPPRLPRPRPRPGFWPRP	0.406
RRIRDRPPRLPRPRPRPHANPRP	0.0766
RRIRYRPPRLPRPRPRPWNGPRP	-0.155
RRIRIRPPRLPRPRPRPPVDPRP	-0.111
RRIRIRPPRLPRPRPRPCERPRP	-0.0509
RRIRWRPPRLPRPRPRPPMYPRP	-0.216
RRIRSRPPRLPRPRPRPWWNPRP	-0.0574
RRIRVRPPRLPRPRPRPYNGPRP	-0.514
RRIRSRPPRLPRPRPRPMPQPRP	0.126
RRIRRRPPRLPRPRPRPGCCPRP	0.589
RRIRLRPPRLPRPRPRPMTMPRP	0.024
RRIRFRPPRLPRPRPRPGSCPRP	-0.0149
RRIRSRPPRLPRPRPRPQIYPRP	-0.354
RRIRTRPPRLPRPRPRPKMPPRP	0.158
RRIRCRPPRLPRPRPRPYHHPRP	-0.746
RRIRVRPPRLPRPRPRPRDAPRP	0.422
RRIRFRPPRLPRPRPRPEEIPRP	0.0025

Sequence	shrunken log2 fold change
RRIRSRPPRLPRPRPRPMASPRP	0.088
RRIRGRPPRLPRPRPRPLRWPRP	1.33
RRIRGRPPRLPRPRPRPIDGPRP	0.245
RRIRCRPPRLPRPRPRPNIIPRP	0.796
RRIRMRPPRLPRPRPRPTQWPRP	0.479
RRIRCRPPRLPRPRPRPMLEPRP	0.293
RRIRSRPPRLPRPRPRPCIQPRP	-0.175
RRIRTRPPRLPRPRPRPEILPRP	0.0249
RRIRHRPPRLPRPRPRPAMPPRP	-0.0758
RRIRRRPPRLPRPRPRPDVHPRP	-0.101
RRIRFRPPRLPRPRPRPLMAPRP	-0.581
RRIRCRPPRLPRPRPRPASYPRP	-0.295
RRIRPRPPRLPRPRPRPIKNPRP	-0.219
RRIRLRPPRLPRPRPRPEKQPRP	0.0884
RRIRVRPPRLPRPRPRPLRLPRP	0.641
RRIRPRPPRLPRPRPRPMQNPRP	0.201
RRIRDRPPRLPRPRPRPKPRPRP	0.711
RRIRGRPPRLPRPRPRPMMYPRP	0.163
RRIRDRPPRLPRPRPRPYIGPRP	-0.0691
RRIRFRPPRLPRPRPRPLSFPRP	0.675
RRIRTRPPRLPRPRPRPCPVPRP	-0.175
RRIRMRPPRLPRPRPRPEWMPRP	0.156
RRIRIRPPRLPRPRPRPTGWPRP	0.19
RRIRDRPPRLPRPRPRPARDPRP	0.724
RRIRDRPPRLPRPRPRPAMTPRP	0.812
